Measurements reported in patent EP4714976A1 (Sunshine Lake Pharma Co., Ltd., dated 2026).
Numbering of substitutions follows the chain as printed.

B1: 3H9-VH1-VL1 (antibody, human IgG1, kappa, V domains shown)
VH: QVQLVQSGAEVKKPGASVKVSCKASGYTFTFYNMHWVRQAPGQGLEWIGLIYPDNGDTSYNQKFKGRATLTADTSTSTVYMELSSLRSEDTAVYYCARGGLDYWGQGTTVTVSS
VL: DIQMTQSPSSLSASVGDRVTITCRASENIYSNLAWYQQKPGKSPKLLIYAATNLADGVPSRFSGSGSGTDYTLTISSLQPEDFATYYCQHFWGTPYTFGGGTKVEIKR
notes: humanized IgG1
B2: 3H9-VH0-VL2 (antibody, human IgG1, kappa)
heavy: not shown
light: DIQMTQSPSSLSASVGDRVTITCRASENIYSNLAWYQQKPGKSPKLLVYAATNLADGVPSRFSGSGSGTDYTLTISSLQPEDFATYYCQHFWGTPYTFGGGTKVEIKRTVAAPSVFIFPPSDEQLKSGTASVVCLLNNFYPREAKVQWKVDNALQSGNSQESVTEQDSKDSTYSLSSTLTLSKADYEKHKVYACEVTHQGLSSPVTKSFNRGEC
notes: humanized IgG1
B3: 3H9-VH0-VL3 (antibody, human IgG1, kappa)
heavy: not shown
light: B2 light with V104L
notes: humanized IgG1
B4: 3H9-VH0-VL1 (antibody, human IgG1, kappa, V domains shown)
VH: B1 VH with I48M
VL: B1 VL
notes: humanized IgG1
B5: 3H9-VH1-VL3 (antibody, human IgG1, kappa)
heavy: not shown
light: B2 light with V104L
notes: humanized IgG1
B6: 3H9-VH0-VL0 (antibody, human IgG1, kappa, V domains shown)
VH: B1 VH with I48M
VL: B1 VL with S43A, Y71F
notes: humanized IgG1
B7: 3H9-VH1-VL2 (antibody, human IgG1, kappa)
heavy: not shown
light: B2 light
notes: humanized IgG1
B8: 3H9-VH1-VL0 (antibody, human IgG1, kappa, V domains shown)
VH: B1 VH
VL: B1 VL with S43A, Y71F
notes: humanized IgG1
B9: 3C7-VH2-VL2 (antibody, human IgG1, kappa, V domains shown)
VH: QVQLVQSGAEVKKPGASVKVSCKASGYIFRNYYIHWVRQAPGQGLEWMGAIYPDNGDTSYNQRFKVRATLTADTSTSTVYMELSSLRSEDTAVYYCARAFTYWGQGTTVTVSS
VL: DIQMTQSPSSLSASVGDRVTITCGASENIYGALNWYQRKPGKAPKLLIYGATNLADGVPSRFSGSGSGTDYTLTISSLQPEDFATYYCQNVLSTPYTFGGGTKLEIKR
notes: humanized IgG1
B10: FR21 (antibody, human IgG1, kappa, V domains shown)
VH: QVQLVQSGAEVKKPGSSVKVSCKASGYIFTTYNVHWVRQAPGQGLEWIGSIYPDNGDTSYNQNFKGRATITADKSTSTAYMELSSLRSEDTAVYYCARGDFAYWGQGTLVTVSS
VL: DIQMTQSPSSLSASVGDRVTITCKASQGVSNDVAWYQQKPGKAPKLLIYSASYRYTGVPSRFSGSGSGTDFTFTISSLQPEDIATYYCQQHSTTPYTFGQGTKLEIKR
notes: also called positive control antibody FR21; positive monoclonal antibody FR21

Biological target: T1, human FGFR2b (Kaixia Biotechnology, catalog number FGR-HM1BB) (human, UniProt P21802-3 22-378)
T1 construct: extracellular domain; bought; also called hFGFR2b; human FGFR2b protein
T1 sequence (P21802 other isoform, or with tags, fused parts or gaps): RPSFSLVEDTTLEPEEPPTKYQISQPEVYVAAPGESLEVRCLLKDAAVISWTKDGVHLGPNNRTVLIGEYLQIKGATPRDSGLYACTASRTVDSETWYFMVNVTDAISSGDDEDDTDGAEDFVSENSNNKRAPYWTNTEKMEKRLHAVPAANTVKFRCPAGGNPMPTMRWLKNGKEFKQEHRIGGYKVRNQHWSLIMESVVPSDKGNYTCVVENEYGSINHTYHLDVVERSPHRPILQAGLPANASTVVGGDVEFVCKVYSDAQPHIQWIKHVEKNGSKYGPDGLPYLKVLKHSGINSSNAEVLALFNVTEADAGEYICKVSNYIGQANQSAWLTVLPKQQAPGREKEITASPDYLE
Assay: BLI, antibody on AHC2 sensor

Binder	Kd	koff	kon
B1	8.5 nM	0.00241 s⁻¹	284000 M⁻¹ s⁻¹
B2	5.06 nM	0.00186 s⁻¹	367000 M⁻¹ s⁻¹
B3	5.09 nM	0.00186 s⁻¹	366000 M⁻¹ s⁻¹
B4	3.55 nM	0.00179 s⁻¹	505000 M⁻¹ s⁻¹
B5	5.05 nM	0.00254 s⁻¹	503000 M⁻¹ s⁻¹
B6	6.51 nM	0.00301 s⁻¹	463000 M⁻¹ s⁻¹
B7	5.37 nM	0.00232 s⁻¹	432000 M⁻¹ s⁻¹
B8	18.5 nM	0.00433 s⁻¹	234000 M⁻¹ s⁻¹
B9	2.03 nM	0.000884 s⁻¹	435000 M⁻¹ s⁻¹
B10	1.52 nM	0.000424 s⁻¹	279000 M⁻¹ s⁻¹

Biological target: T2, FGFR2b on KATO III cells (human, UniProt P21802-3 22-822)
T2 construct: whole, on cells; also called KATO III cells that overexpress FGFR2b
T2 sequence (P21802 other isoform, or with tags, fused parts or gaps): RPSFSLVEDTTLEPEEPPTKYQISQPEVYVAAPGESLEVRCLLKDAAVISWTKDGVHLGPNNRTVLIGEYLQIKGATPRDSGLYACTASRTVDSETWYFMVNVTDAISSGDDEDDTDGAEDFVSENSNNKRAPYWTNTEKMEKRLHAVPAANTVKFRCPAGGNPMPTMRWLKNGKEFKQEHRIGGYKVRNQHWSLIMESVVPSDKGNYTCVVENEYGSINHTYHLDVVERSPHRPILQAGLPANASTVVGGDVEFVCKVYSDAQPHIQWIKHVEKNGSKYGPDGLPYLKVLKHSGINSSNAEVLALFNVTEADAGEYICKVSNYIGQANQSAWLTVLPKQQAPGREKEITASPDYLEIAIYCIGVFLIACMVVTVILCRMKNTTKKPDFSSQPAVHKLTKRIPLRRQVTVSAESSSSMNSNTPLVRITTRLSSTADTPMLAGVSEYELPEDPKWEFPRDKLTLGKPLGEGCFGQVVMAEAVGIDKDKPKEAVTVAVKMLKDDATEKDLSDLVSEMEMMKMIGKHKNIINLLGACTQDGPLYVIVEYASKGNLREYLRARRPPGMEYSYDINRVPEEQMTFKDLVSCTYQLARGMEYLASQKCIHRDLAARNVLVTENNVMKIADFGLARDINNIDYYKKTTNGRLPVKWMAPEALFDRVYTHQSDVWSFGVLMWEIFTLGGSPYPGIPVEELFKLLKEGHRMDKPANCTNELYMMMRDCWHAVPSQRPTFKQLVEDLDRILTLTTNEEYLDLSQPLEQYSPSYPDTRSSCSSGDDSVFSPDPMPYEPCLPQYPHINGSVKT
Assay: flow cytometry, KATO III cells

Binder	EC50
B1	0.379 µg/mL
B2	0.357 µg/mL
B3	0.469 µg/mL
B4	0.18 µg/mL
B5	0.215 µg/mL
B6	0.336 µg/mL
B7	0.0909 µg/mL
B8	0.378 µg/mL
B9	0.559 µg/mL
B10	0.586 µg/mL
